Results from patent US20220290200A1, “GENETICALLY MODIFIED HOST CELLS PRODUCING GLYCOSYLATED CANNABINOIDS” (OCTARINE BIO IVS, priority 2019, published 2022).

B1: PL-28(At72B1_GA) (protein, UniProt Q9M156 1-480, looked up)
UDP-glycosyltransferase 72B1: MEESKTPHVAIIPSPGMGHLIPLVEFAKRLVHLHGLTVTFVIAGEGPPSKAQRTVLDSLPSSISSVFLPPVDLTDLSSSTRIESRISLTVTRSNPELRKVFDSFVEGGRLPTALVVDLFGTDAFDVAVEFHVPPYIFYPTTANVLSFFLHLPKLDETVSCEFRELTEPLMLPGCVPVAGKDFLDPAQDRKDDAYKWLLHNTKRYKEAEGILVNTFFELEPNAIKALQEPGLDKPPVYPVGPLVNIGKQEAKQTEESECLKWLDNQPLGSVLYVSFGSGGTLTCEQLNELALGLADSEQRFLWVIRSPSGIANSSYFDSHSQTDPLTFLPPGFLERTKKRGFVIPFWAPQAQVLAHPSTGGFLTHCGWNSTLESVVSGIPLIAWPLYAEQKMNAVLLSEDIRAALRPRAGDDGLVRREEVARVVKGLMEGEEGKGVRNKMKELKEAACRVLKDDGTSTKALSLVALKWKAHKKELEQNGNH
B2: PL-214(Cs73Y_GA) (protein)
chain: MGSEGRQLHIFMFPFMAHGHMIPIVDMAKLFASRGIKITIVTTPLNSISISKSLHNCSPNSLIQLLILKFPAAEAGLPDGCENADSIPSMDLLPKFFEAVSLLQPPFEEALHNNRPDCLISDMFFPWTNDVADRVGIPRLIFHGTSCFSLCSSEFMRLHKPYQHVSSDTEPFTIPYLPGDIKLTKMKLPIFVRENSENEFSKFITKVKESESFCYGVVVNSFYELEAEYVDCYKDVLGRKTWTIGPLSLTNTKTQEITLRGRESAIDEHECLKWLDSQKPNSVVYVCFGSLAKFNSAQLKEIAIGLEASGKKFIWVVRKGKGEEEEEEQNWLPEGYEERMEGTGLIIRGWAPQVLILDHPSVGGFVTHCGWNSTLEGVAAGVPMVTWPVGAEQFYNEKLVTEVLKTGVGVGVQKWAPGVGDFIESEAVEKAIRRIMEKEGEEMRNRAIELGKKAKWAVGEEGSSYSNLDALIEELKSLAF
B3: PL-182(Ha88B_2_GA) (protein)
chain: MESSTVVMYPSPGIGHLVSMVELGKLIHTHHPSLSVIILILTAPYETGATGKYINTVSATTPAITFHHLPAIALPPDFSSEFIDLAFGLPELYNSVVHNTLVAISQKSTIKAVILDFFSNAAFQVSTNLSLPTYYFFTSGTFGLCAFLYLTTLHKTTSKSIKDLNTLLDFPGVPPIHSSHMPTAIFDRESNSYKNFMKTSNNMAKCSGIIVNSFLELEERAVATLRDGKCITDGPTPPIYFIGPLIASGSQVDPNENECLKWLKTQPSKSVVFLCFGSMGVFEKEQLKEIAVGLERSGQRFLWVVRNPPLESSSGAKEFELDDILPEGFLTRTKDKGLVVKNWAPQPAILGHESVGGFVSHCGWNSSLEAVVSGVPMVAWPLYAEQQMNRVYLVEEIKVALWLRMSADGFVGAEAVEETVRKLMEGEEGRAVREQILEMSGGAKAAVEDGGSSRLDFLKLTRPWTDQ

Experiments:
[1] = In vitro enzymatic cascade converting sucrose and CBD to CBD glycosides; format: biochemical; conditions: enzymes added: GmSuSy
From the text: In the previous examples, in vitro glycosyl transferase assays required the addition of an “activated” sugar (e.g. UDP-glucose), which is typically an extremely expensive reagent, furthermore, other activated sugars e.g. UDP-rhamnose are not available commercially and must be custom synthesized at high-cost and difficulty. […] To facilitate the low-cost production of cannabinoid glycosides not only with glucose, but with alternative sugars, an enzymatic cascade was set up to convert cannabinoids and the simple sugar sucrose into various cannabinoid glycosides. The cascade is divided into 3 steps, in step 1 sucrose and uridine diphosphate (UDP) is converted to UDP-glucose by GmSuSy (SEQ ID NO: 209, 210), additionally generating fructose as a bi-product. In step 2, UDP-glucose is interconverted to alternative UDP-sugars using a range of enzymes. For example, conversion of UDP-glucose to UDP-galactose by BsGa/E, multiple enzymes can also be used to produce UDP-sugars via other UDP-sugar intermediates. For example, conversion of UDP-glucose to UDP-glucuronic acid by AtUGDH1 combined with conversion of UDP-glucuronic acid to UDP-xylose by AtUXS3. In step 3, glycosyl transferases convert the activated sugar and a cannabinoid acceptor to the corresponding cannabinoid glycoside. For example, conversion of UDP-rhamnose and CBD to CBD-1′-O-β-D-rhamnoside (OB13) by Cs73Y (SEQ ID NO: 157, 158).
Enzymes were purified and the in vitro assay performed as described in Example 13 and the reaction mixture set up as shown in table 57. Enzymes and co-factors were added as required for each individual reaction. Samples were extracted and analyzed as stated above.

[2] = In vitro glycosyl transferase performance, purified enzymes, % conversion of cannabinoids to cannabinoid glycosides; format: biochemical; conditions: for Conversion % (CBD to the glycoside): acceptor CBD; for % conversion of CBDV to OB24 (CBDV-1′-O-β-D-glucoside): Table 33; for % conversion, 11-nor-9-carboxy-THC to OB41 (11-nor-9-carboxy-THC-1′-O-β-D-glucoside): substrate 11-nor-9-carboxy-THC, product OB41; for % conversion of CBD to OB9 (CBD-1′-O-β-D-xyloside): Table 26; for % conversion of CBDA to OB31 (CBDA-1′-O-β-D-glucoside): Table 37; for % conversion, CBG to OB33 (CBG-1′-O-β-D-glucosyl-3′-O-β-D-glucoside): product OB33; for % conversion, CBN to OB23 (CBN-1′-O-β-D-di-glucoside): substrate CBN, product OB23; for % conversion, THC to OB20 (THC-1′-O-β-D-glucoside): substrate THC, product OB20
Procedure: For in vitro studies of glycosyl transferase performance in glycosylating cannabinoids, purified Glycosyl transferases were prepared as follows:
5 mL of 2× concentrated LB medium+Ampicillin (50 μg/m L) was inoculated with E. coli XJb (DE3) strains expressing a glycosyl transferase of interest and incubated overnight at 30° C. with shaking. The following day, cell cultures were transferred into 500 mL of 2× concentrated LB medium+Ampicillin (50 μg/mL) and incubated overnight at 30° C. with shaking. The following day, the cell cultures were transferred to 1 L of 2× concentrated LB medium+Ampicillin (50 μg/mL)+3 mM arabinose+0.1 mM IPTG. Cells were incubated for 24 h at 20° C. with shaking. The following day, the cells were collected by centrifugation at 46500×g for 10 mins at 4° C. Cells were resuspended in 20 mL ice-cold GT buffer (50 mM Tris-HCl pH7.4+1 mM phenylmethanesulfonyl fluoride+1 cOmplete™, mini, EDTA-free Protease Inhibitor Cocktail tablet (Roche)). The resuspended material was transferred to a 50 mL falcon tube and kept at −80° C. for at least 15 mins. Falcon tubes were then thawed at room temperature, as the tubes were thawing the following reagents were added; 2.6 mM MgCl2, 1 mM CaCl2, 250 μL of a 1.4 mg/ml DNase solution (Sigma) dissolved in MilliQ water. Tubes were gently inverted to mix then were incubated for 5 mins at 37° C. Binding buffer was then added to the tubes (50 mM Tris-HCl pH7.4, 10 mM imidazole, 500 mM NaCl. 11.25 mL MilliQ water) and the pH adjusted to 7.4 with HCl. The mix was centrifuged at 15550×g for 15 mins at 4° C., the supernatant transferred to a fresh 50 mL falcon tubes and centrifuged again to remove any remaining cellular debris at 48400×g for 20 minutes at 4° C. While the enzyme prep was centrifuging, 3 mL of HIS-Select (available from Sigma P6611) column material was added to a fresh 50 mL tube and washed by adding MilliQ water up to 50 mL, centrifuging at 2000×g for 2 mins and discarding the supernatant. This washing step was repeated. Finally, MilliQ water was added to the HIS-Select material to an approximate 50% volume. Collected supernatant from the centrifuged enzyme preparation was transferred to the tube containing the HIS-Select material through a Miracloth (available from Merck Millipore), and then incubated at 4° C. with gently shaking by inversion for 2 h. After 2 h the mix was centrifuged at 2000×g for 4 minutes at 4° C. and the supernatant discarded. The remaining HIS-Select material was washed twice with 1× binding buffer (50 mM Tris-HCl, 0.5M NaCl, 10 mM Imidazole, pH 7.4) with centrifugation at 2000×g for 4 minutes at 4° C. The HIS-Select material was resuspended in 5 mL 1× binding buffer and transferred to a Poly-Prep®Chromatography Column (available from BioRad, 7311550). The HIS-Select material was kept at 4° C. and washed twice with 1× binding buffer by filling up the column and allowing it to drip through. Finally, purified Glycosyl transferases were eluted from the HIS-Select material by adding 7.5 mL of elution buffer (50 mM Tris-HCl, 500 mM Imidazole, pH7.4) and collecting the flow through. Enzymes were used immediately in in vitro enzyme assays or stored at −20° C. in 50% glycerol until needed.
In vitro conversion of various cannabinoids to cannabinoid glycosides was carried out according to table 21. Alkaline phosphatase was provided by New England Biolabs (M0371S). Cannabinoids were dissolved in methanol. The UDP-sugar (e.g. UDP-glucose) was provided by a commercial supplier (e.g. Sigma) or produced by in vitro enzymatic conversion from a commercially available UDP-sugar as shown in Example 21.
The reaction mixture was scaled up or down as required. The reaction mixture was incubated without shaking at 30° C. for 24 hours. Extraction and analysis were performed as described above for this example. […]

[3] = substrate CBG, glycosyl transferase in vitro

Molecule	% conversion of CBDV to OB24 (CBDV-1′-O-β-D-glucoside) ([2]; glycosyl transferase in vitro) [%]	% conversion, 11-nor-9-carboxy-THC to OB41 (11-nor-9-carboxy-THC-1′-O-β-D-glucoside) ([2]; glycosyl transferase in vitro) [%]	% conversion of CBD to OB9 (CBD-1′-O-β-D-xyloside) ([2]; glycosyl transferase in vitro) [%]	% conversion of CBDA to OB31 (CBDA-1′-O-β-D-glucoside) ([2]; glycosyl transferase in vitro) [%]	% conversion, CBG to OB33 (CBG-1′-O-β-D-glucosyl-3′-O-β-D-glucoside) [2, 3] [%]	% conversion, CBN to OB23 (CBN-1′-O-β-D-di-glucoside) ([2]; glycosyl transferase in vitro) [%]	% conversion, THC to OB20 (THC-1′-O-β-D-glucoside) ([2]; glycosyl transferase in vitro) [%]	further results
C=C(C)[C@@H]1CCC(C)=C[C@H]1c1c(O[C@@H]2OC[C@@H](O)[C@H](O)[C@H]2O)cc(CCCCC)cc1O[C@@H]1OC[C@@H](O)[C@H](O)[C@H]1O [OB10, CBD-1′-O-β-D-xylosyl-3′-O-β-D-xyloside]								% Conversion of CBD and sucrose to CBD glycoside ([1]; AtUGDH1, AtUXS3, Cs73Y): 72.3%; Conversion % (CBD to the glycoside) ([2]; UDP-Xylose, enzyme PL-214(Cs73Y_GA)): 97.4%
C=C(C)C1CCC(C)=CC1c1c(O)cc(CCCCC)cc1OC1OC(C)C(O)C(O)C1O [OB13, CBD-1′-O-α-L-rhamnoside]								% Conversion of CBD and sucrose to CBD glycoside ([1]; AtRHM2, Cs73Y): 15.2%; Conversion % (CBD to the glycoside) ([2]; UDP-Rhamnose, enzyme PL-342(Cp73B_GA)): 5.7%
B1	9.9	0.9						
B2		2.0	6.9	98.6	100.0	98.6	29.5	% conversion of CBD to OB13 (CBD-1′-O-α-L- rhamnoside) ([2]; glycosyl transferase in vitro, Table 25): 4.4%; % conversion of CBD to OB6 (CBD-1′-O-β-D-glucosyl-3′-O-β-D-glucoside) ([2]; glycosyl transferase in vitro, Table 27): 95.8%; % conversion of CBD to OB10 (CBD-1′-O-β-D-xylosyl-3′-O-β-D-xyloside) ([2]; glycosyl transferase in vitro, Table 28): 98.5%; % conversion of CBD to OB7 (CBD-1′-O-β-D-tri-glucoside) ([2]; glycosyl transferase in vitro, Table 29): 27.3%; % conversion of CBD to OB8 (CBD-1′-O-β-D-glucosyl-3′-O-β-D-di-glucoside) ([2]; glycosyl transferase in vitro, Table 30): 12.3%; % conversion of CBDV to OB25 (CBDV-1′-O-β-O-glucosyl-3′-O-β-D-glucoside) ([2]; glycosyl transferase in vitro, Table 34): 91.0%
B3	89.0		9.6	15.5	26.5	68.0	80.3	% conversion of CBD to OB1 (CBD-1′-O-β-D-glucoside) ([2]; glycosyl transferase in vitro, Table 24): 50.0%; % conversion, CBG to OB32 (CBG-1′-O-β-D-glucoside) ([2]; substrate CBG, product OB32, glycosyl transferase in vitro): 82.9%
